This is an account of results in article PMC9110426, “Cooperative regulation of PBI1 and MAPKs controls WRKY45 transcription factor in rice immunity”.

The series addresses T1, Myc-WRKY45 (Oryza sativa (rice), UniProt Q5W6D6 1-326).
T1 sequence: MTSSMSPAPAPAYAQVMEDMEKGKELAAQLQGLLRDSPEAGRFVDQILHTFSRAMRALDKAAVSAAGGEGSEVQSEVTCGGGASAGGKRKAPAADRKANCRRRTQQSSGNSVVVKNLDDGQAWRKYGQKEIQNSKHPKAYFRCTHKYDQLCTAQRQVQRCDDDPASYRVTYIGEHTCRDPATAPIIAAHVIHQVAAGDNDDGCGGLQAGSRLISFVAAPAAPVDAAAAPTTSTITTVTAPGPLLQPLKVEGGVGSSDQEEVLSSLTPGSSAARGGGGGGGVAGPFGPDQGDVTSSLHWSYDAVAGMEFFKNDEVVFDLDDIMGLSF
Description: EMSA; 10 uM ZnCl2; poly(dI-dC); suppressed by excess unlabeled probe (40-fold in Methods, 50-fold in Supplementary Fig. 10c); 25 mM HEPES-KOH pH 7.6, 40 mM KCl, 0.1% Nonidet P-40, 10 uM ZnCl2, 1 mg/mL BSA, 10% glycerol, 1 mM DTT, 0.15 ug poly(dI-dC); 25 min at room temperature; 6% PAGE in Tris-borate at 4 C. As to conditions: protein: ivt; tags: Myc; blunt. (In general: A gel shift assay detects complexes by their altered migration in electrophoresis.)

B1: DFA promoter W-box probe (dsDNA)
DNA 1: AGTTGGCAAAAGCTAAGTACAAGTCATTGTGTGGTCAATTGATCGACTGATCTGTTGCTC
DNA 2: GAGCAACAGATCAGTCGATCAATTGACCACACAATGACTTGTACTTAGCTTTTGCCAACT
With B1, the binding result is given as “binds”.
